The values below come from US9688764B2, “Methods of treating breast cancer by administering anti-human prolactin receptor (PRLR) antibodies” (REGENERON PHARMACEUTICALS, INC., priority 2013, dated 2017).

Where two headings read alike, the source gives them in different places.

Experiment [1] relates to T47D cells. Put plainly: Cell viability (cell kill) assay. Format: cell-based. The method in brief:
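T47D cells grown overnight, then exposed 3 days to anti-PRLR ADCs (DM1 via non-cleavable SMCC linker, or other maytansinoid toxins) or free DM1-SMe, 500 nM to 5 pM. Viability by CCK8 OD450, digitonin background subtracted, as % of untreated; IC50 from 10-point four-parameter fit. PRL (15 nM) co-incubation tested separately.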

The subject of experiment [2] is MCF7/hPRLR (MCF7/PRLR) cells. Briefly: Cell viability (cell kill) assay, nuclear counts. It counts as cell-based, human. In outline:
(§1)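 Anti-PRLR ADCs or free DM1-SMe were added at 500 nM to 5 pM final to cells seeded overnight and were incubated 3 days. MCF7 lines were fixed with 4% formaldehyde plus Hoechst 33342, and nuclei were counted by imaging, with digitonin […] background subtracted. Viability was expressed as % of untreated cells, and IC50 was obtained from a 4-parameter fit of a 10-point curve.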

Experiment [3] concerns SK-BR-3 cells. Put plainly: Cell viability (cell kill) assay. Format: cell-based. The following applies: Table 16.
In experiment [4] the test system is HEK293/hPRLR (293/hPRLR) cells. Put plainly: Cell viability (cell kill) assay. Format: cell-based, human. Conditions: 3 days. The source says:
PRLR-overexpressing cells, including HEK293, PC3, MCF7 and NCI-N87, were generated to assess the ability of anti-PRLR conjugated antibodies to reduce cell viability. For comparative purposes, PC3 and T47D cells with overexpressed ErbB2 were also generated, as well as an MCF7 cell line over-expressing both hPRLR and hErbB2. Briefly, Lipofectamine® 2000-mediated transfection methodology was utilized to generate HEK293 cells expressing human PRLR (HEK293/hPRLR) or human ErbB2 (HEK293/hErbB2). Lipofectamine LTX with Plus Reagent was used to generate PC3 cells expressing human PRLR (PC3/hPRLR) or human ErbB2 (PC3/hErbB2). Lentiviral-mediated transduction was utilized to generate MCF7 cells expressing human PRLR (MCF7/hPRLR), NCI-N87 cells expressing human PRLR (NCI-N87/hPRLR), T47D cells over-expressing human ErbB2 (T47D/hErbB2), and MCF7 cells expressing both human PRLR and human ErbB2 (MCF7/hPRLR/hErbB2). All lines were selected for at least two weeks in complete growth media plus appropriate selection reagents. Stably expressing populations were enriched for PRLR expression via FACS using the anti PRLR antibody Control I.
Next, the ability of anti-PRLR-DM1 antibody-drug conjugates (i.e., anti-PRLR antibodies conjugated to DM1 via a non-cleavable linker [SMCC]) to reduce cell viability was determined using in vitro cell based assays. Cells were seeded in PDL-coated 96 well plates at 1500 to 10000 cells per well in complete growth media and allowed to grow overnight. For cell viability curves, ADCs or free DM1 (as the methyl disulfide derivative DM1-SMe) were added to the cells at final concentrations ranging from 500 nM to 5 pM and incubated for 3 days. The 293, PC3 and T47D cells were incubated with CCK8 (Dojindo, Rockville, Md.) for the final 1-3 hours and the absorbance at 450 nm (OD450) was determined on a Flexstation3 (Molecular Devices, Sunnyvale, Calif.). MCF7 cells were treated with Hoechst 33342 nuclear stain while being fixed with 4% formaldehyde. Images were acquired on the ImageXpress micro XL (Molecular Devices, Sunnyvale, Calif.) and nuclear counts were determined via Columbus image analysis software (Perkin Elmer, Shelton, Conn.). Background OD450 values (PC3, 293, and T47D) or nuclear counts (MCF7) from digitonin (40 nM) treated cells was subtracted from all wells and viability was expressed as a percentage of the untreated controls. IC50 values were determined from a four-parameter logistic equation over a 10-point response curve (GraphPad Prism).

Experiment [5] has as its system MCF7 (MCF7/ATCC) cells. Briefly: Cell viability (cell kill) assay, nuclear counts. It counts as cell-based. In outline:
as §1

Experiment [6] concerns T47D#11 tumors. Put plainly: Tumor growth inhibition in xenograft-bearing mice. Format: in vivo, CB17 SCID mice. The following applies: multi-dose, 5 and 15 mg/kg. The source says: Briefly, 20×10^6 MCF7/PRLR cells (ATCC HTB-22 transfected with full length hPRLR as previously described) were implanted subcutaneously into the left mammary fat pad of female NCr nude mice. In other studies, 10×10^6 PC3/PRLR (ATCC CRL-1435 transfected with full length hPRLR as previously described) were implanted subcutaneously into the left flank of male SCID mice. Additionally, 10×10^6 parental T47D (ATCC HTB-133) or […] T47D#11 cells (ATCC HTB-133 serially passaged in vivo as described below) were subcutaneously implanted into the left flank of female CB17 SCID mice. All mice were obtained from Taconic (Hudson, N.Y.). Each bolus of cells was supplemented with a 90-day estrogen release pellet (1.7 mg/pellet; Innovative Research America, Sarasota Fla.). Once tumors had reached an average volume of 250 mm^3, mice were randomized into groups of seven and dosed with anti-PRLR antibody-drug conjugates of the invention or control reagents. Control reagents included PBS vehicle, free methyl-disulfide DM1 (DM1-SMe) and isotype Control 1-DM1.
In multi-dose studies, mice were dosed once a week for a total of three weeks with tumor volumes and body weights being monitored twice weekly throughout the study. Test ADCs were dosed at 5 and/or 15 mg/kg in the multi-dose studies. In single-dose studies, mice received a single dose of test ADC, and tumor volumes and body weights were monitored twice weekly throughout the study. Test ADCs were dosed at 1, 2.5, 5, and 15 mg/kg in the single-dose studies. Average tumor size as well as tumor growth inhibition relative to the vehicle treated group were calculated for each group. Tumors were measured with calipers twice a week until the average size of the vehicle group reached 1000 mm^3. Tumor size was calculated using the formula (length×width^2)/2. Tumor growth inhibition was calculated according to the following formula: (1−((Tfinal−Tinitial)/(Cfinal−Cinitial)))*100, where T (treated group) and C (control group) represent the mean tumor mass on the day the vehicle group reached 1000 mm^3. […] Results are summarized in Tables 21-25 (multi-dose) and Table 26 (single dose). (NT=not tested in the particular experiment shown).

Where [7] appears, read: T47D, Table 12, 3 days, read-out: IC50.
Where [8] appears, read: 293/PRLR, Table 11, read-out: IC50.

B1: H1H6953N-DM1 (conjugate)
VH: EVQLLESGGGLVQPGGTLRLSCAASGFTFSAYAMSWVRQAPGKGLEWVSSINVRAGDTYYADSVKGRFTISRDNSKNTLFLLMNSLRAEDTAAYYCAKARYSSNWGFDFWGQGTLVTVSS
VL: DIVMTQSPDSLTVSLGARTTINCQSSQTILHSSNNHNYLAWYQQKPGLPPKLLIYWSSTRESGVPDRFSGSGSGTDFTLTISSLQAEDVAIYYCQQYSNTPYTFGQGTKLEIN
For B1, the IC50 in experiment [1] (T47D cells (PRLR 12× above background), 3 days, read-out: IC50, cell viability) was 1.3 nM; in experiment [1] (setting [7]) it was 1.64 nM; in experiment [2] (Table 12, 3 days), 0.29 nM; in experiment [2] (Table 17), 0.33 nM; in experiment [3], 100 nM; in experiment [4] (setting [8]), 0.28 nM. Also, the IC50 in experiment [4] (293/hPRLR cells (PRLR 18× above background), read-out: IC50, cell viability) came out at 0.43 nM; in experiment [5] (MCF7, Table 12, 3 days) it was 100 nM; in experiment [5] (MCF7, Table 16), 82 nM. For the same molecule, the “% Kill” value is given as 79% in experiment [1] (T47D, Table 12, 3 days); 76% in experiment [2] (Table 12, 3 days); 76% in experiment [2] (Table 17); 95% in experiment [4] (293/PRLR, Table 11); 55% in experiment [5] (MCF7, Table 12, 3 days).

B2: H1H6958N2-DM1: anti-PRLR antibody H1H6958N2 conjugated to DM1 through an SMCC linker (conjugate)
VH: QVQLVESGGGVVQPGRSLRLSCGASGFTFRNYGMQWVRQGPGKGLEWVTLISFDGNDKYYADSVKGRFTISRDNSKNTLFLQMNSLRTEDTAVYYCARGGDFDYWGQGTLVTVSS
VL: DIQMTQSPSSLSASVGDRVTITCRASQDIRKDLGWYQQKPGKAPKRLIYAASSLHSGVPSRFSGSGSGTEFTLTISSLQPEDFATYYCLQHNSYPMYTFGQGTKLEIK
For the molecule B2, in experiment [6], the “effect on T47D#11 tumor growth” value is “potently inhibited tumor growth”. The “% Kill” value is on record as 71% in experiment [1] (T47D, Table 12, 3 days); 100% in experiment [1] (T47D, Table 13, + 15 nM PRL); 100% in experiment [1] (T47D, Table 13, without PRL); 100% in experiment [1] (T47D, Table 19); 77% in experiment [2] (Table 12, 3 days); 83% in experiment [2] (Table 18). Also, the “% Kill” value in experiment [2] (Table 20) was found to be 80%; in experiment [4] (293/PRLR, Table 11), 95%; in experiment [5] (MCF7/ATCC, Table 18) it was 72%; in experiment [5] (MCF7/ATCC, Table 20), 70%; in experiment [5] (MCF7, Table 12, 3 days) it was 77%. The half-inhibitory concentration (IC50) came out at 1.34 nM in experiment [1] (setting [7]); 3 nM in experiment [1] (T47D, Table 13, + 15 nM PRL, read-out: IC50); 1 nM in experiment [1] (T47D, Table 13, without PRL, read-out: IC50); 2 nM in experiment [1] (T47D, Table 19, read-out: IC50); 0.19 nM in experiment [2] (Table 12, 3 days); 0.2 nM in experiment [2] (Table 18). Besides, the half-inhibitory concentration (IC50) in experiment [2] (Table 20) was determined as 0.2 nM; in experiment [4] (setting [8]) it was 0.1 nM; in experiment [5] (MCF7/ATCC, Table 18), 90 nM; in experiment [5] (MCF7/ATCC, Table 20), 70 nM; in experiment [5] (MCF7, Table 12, 3 days) it was 100 nM.

As a reminder, the IC50 is the concentration that inhibits the measured activity by half.
